The values that follow come from patent US20030045681A1 (published 2003).

Some results are limits rather than exact numbers.

In one assay the target is hen egg lysozyme (hen) (UniProt P00698). Put plainly: radiolabeled scFv loaded onto an antigen column, flow-through and eluate counted.
Assay [1] deals with an irrelevant antigen (antigen of HyHEL-10, not given). Put plainly: affinity chromatography of the conjugate on an antigen column.
Assay [2] deals with T1, recombinant ED-B domain of fibronectin (UniProt P02751 1266-1356, biotinylated (biotin disulfide N-hydroxysuccinimide ester) in ELISA and the ECL competition; Cy5 at the N-terminal extremity in the band-shift assay).
T1 construct: domain: ED-B; also called biotinylated ED-B; ED-B-biotin
Put plainly: SPR (BIAcore), purified scFv on ED-B. Here is the method: (§1) Meth., 206, 171-182) and affinity purified onto a CNBr-activated sepharose column (Pharmacia, Uppsala, Sweden), which had been coupled with 10 mg of ED-B containing 7B89 recombinant protein (Carnemolla et al. (1996). Int. J. Cancer, 68, 397-405). After loading, the column was washed with 50 ml of equilibration buffer (PBS, 1 mM EDTA, 0.5 M NaCl). Antibody fragments were then eluted with triethylamine 100 mM, immediately neutralised with 1M Hepes, pH 7, and dialysed against PBS. Affinity measurements by BIAcore were performed with purified antibodies as described (Neri et al. (1997). Nature Biotechnol., 15 1271-1275) [FIG. 4]. Band-shift analysis was performed as described (Neri et al. (1996). Nature Biotechnology, 14, 385-390), using recombinant ED-B fluorescently labeled at the N-terminal extremity (Carnemolla et al. (1996). Int. J. Cancer, 68, 397-405, Neri et al. (1997). Nature Biotechnol., 15 1271-1275) with the infrared fluorophore Cy5 (Amersham) [FIG. 4]. […] We therefore performed measurements of the kinetic dissociation constant koff by competition experiments (Neri et al. (1996), Trends in Biotechnol., 14, 465-470) [FIG. 4]. […] Streptavidin-coated dynabeads, diluted in Origen Assay Buffer (Deaver, D. R. (1995). Nature, 377, 758-760) were then added (20 μl, 1 mg/ml), and the resulting mixtures analysed with a ORIGEN Analyzer (IGEN Inc. Gaithersburg, Md. USA). […]
(In general: SPR reads the build-up and loss of mass on a sensor chip optically.)

For assay [3], the target named is T1, recombinant ED-B domain of fibronectin. As to the kind of experiment: Kd = koff/kon, koff from ECL competition, kon from BIAcore. Here is the method:
as §1, with “Int.” for “Meth., 206, 171-182) and affinity purified onto a CNBr-activated sepharose column (Pharmacia, Uppsala, Sweden), which had been coupled with 10 mg of ED-B containing 7B89 recombinant protein (Carnemolla et al. (1996). Int.”

Assay [4] shares this target. As to the kind of experiment: SPR (BIAcore); the footnote calls this value not sufficiently reliable. Here is the method:
as §1

Assay [5] shares this target. As to the kind of experiment: competition of the scFv-(biotinylated ED-B) complex with excess unbiotinylated ED-B, electrochemiluminescent detection (Origen). The procedure: as §1, with “Int.” for “Meth., 206, 171-182) and affinity purified onto a CNBr-activated sepharose column (Pharmacia, Uppsala, Sweden), which had been coupled with 10 mg of ED-B containing 7B89 recombinant protein (Carnemolla et al. (1996). Int.”

T1 sequence (P02751 1266-1356 limits assumed): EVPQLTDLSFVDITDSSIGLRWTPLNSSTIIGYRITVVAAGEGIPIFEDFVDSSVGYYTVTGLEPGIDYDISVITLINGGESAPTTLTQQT
Sequence of hen egg lysozyme (hen) (P00698 19-147): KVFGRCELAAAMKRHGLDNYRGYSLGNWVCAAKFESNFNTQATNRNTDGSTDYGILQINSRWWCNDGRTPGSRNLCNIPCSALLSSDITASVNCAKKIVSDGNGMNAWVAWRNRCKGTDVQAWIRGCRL

Consider radioiodinated scFv(D1.3), for which the immunoreactivity in the assay with hen egg lysozyme (hen) is greater than 80%.
On to scFv(HyHEL-10)-Cy5, for which, in assay [1], the immunoreactivity is greater than 78%.

B1: scFv(L19) (scFv)
scFv: EVQLLESGGGLVQPGGSLRLSCAASGFTFSSFSMSWVRQAPGKGLEWVSSISGSSGTTYYADSVKGRFTISRDNSKNTLYLQMNSLRAEDTAVYYCAKPFPYFDYWGQGTLVTVSSGDGSSGGSGGASTGEIVLTQSPGTLSLSPGERATLSCRASQSVSSSYLAWYQQKPGQAPRLLIYYASSRATGIPDRFSGSGSGTDFTLTISRLEPEDFAVYYCQQTGRIPPTFGQGTKVEIKDDDSDDDYKDDDDKHHHHHH
notes: also called antibody L19; anti-ED-B L19
For B1, the kon (as a rule, the rate constant with which the complex forms) in assay [2] was determined as 110000 M⁻¹ s⁻¹. The Kd (usually the concentration at which binding is half-saturated) in assay [3] was 0.054 nM. Also, the values for the koff in assay [4] and in assay [5] were 9.6e-05 s⁻¹ and 6e-06 s⁻¹, respectively.
